For this experiment, the target named is feline FcRn complex (FcRn-α subunit and β-microglobulin), biotin labeled (feline). The experiment is described as follows: SPR, pH 6.

Data on eleven molecules can be found in patent US20240400708A1.

B1: feline IgG1a S252E (antibody, part only; not given: variable domains, not shown: another chain or arm of the molecule)
constant: ASTTAPSVFPLAPSCGTTSGATVALACLVLGYFPEPVTVSWNSGALTSGVHTFPAVLQASGLYSLSSMVTVPSSRWLSDTFTCNVAHPPSNTKVDKTVRKTDHPPGPKPCDCPKCPPPEMLGGPSIFIFPPKPKDTLEISRTPEVTCLVVDLGPDDSDVQITWFVDNTQVYTAKTSPREEQFNSTYRVVSVLPILHQDWLKGKEFKCKVNSKSLPSPIERTISKAKGQPHEPQVYVLPPAQEELSRNKVSVTCLIKSFHPPDIAVEWEITGQPEPENNYRTTPPQLDSDGTYFVYSKLSVDRSHWQRGNTYTCSVSHEALHSHHTQKSLTQSPGK
In the case of B1, the dissociation constant Kd is 163 nM.

B2: feline IgG1a S252N (antibody, part only; not given: variable domains, not shown: another chain or arm of the molecule)
constant: ASTTAPSVFPLAPSCGTTSGATVALACLVLGYFPEPVTVSWNSGALTSGVHTFPAVLQASGLYSLSSMVTVPSSRWLSDTFTCNVAHPPSNTKVDKTVRKTDHPPGPKPCDCPKCPPPEMLGGPSIFIFPPKPKDTLNISRTPEVTCLVVDLGPDDSDVQITWFVDNTQVYTAKTSPREEQFNSTYRVVSVLPILHQDWLKGKEFKCKVNSKSLPSPIERTISKAKGQPHEPQVYVLPPAQEELSRNKVSVTCLIKSFHPPDIAVEWEITGQPEPENNYRTTPPQLDSDGTYFVYSKLSVDRSHWQRGNTYTCSVSHEALHSHHTQKSLTQSPGK
In the case of B2, the Kd was found to be 400 nM.

B3: feline IgG1a S252K (antibody, part only; not given: variable domains and light chain, not shown: another chain or arm of the molecule)
constant: ASTTAPSVFPLAPSCGTTSGATVALACLVLGYFPEPVTVSWNSGALTSGVHTFPAVLQASGLYSLSSMVTVPSSRWLSDTFTCNVAHPPSNTKVDKTVRKTDHPPGPKPCDCPKCPPPEMLGGPSIFIFPPKPKDTLKISRTPEVTCLVVDLGPDDSDVQITWFVDNTQVYTAKTSPREEQFNSTYRVVSVLPILHQDWLKGKEFKCKVNSKSLPSPIERTISKAKGQPHEPQVYVLPPAQEELSRNKVSVTCLIKSFHPPDIAVEWEITGQPEPENNYRTTPPQLDSDGTYFVYSKLSVDRSHWQRGNTYTCSVSHEALHSHHTQKSLTQSPGK
B3 yielded a Kd of 53.7 nM.

B4: feline IgG1a S252L (antibody, part only; not given: Variable domains, not shown: another chain or arm of the molecule)
constant: ASTTAPSVFPLAPSCGTTSGATVALACLVLGYFPEPVTVSWNSGALTSGVHTFPAVLQASGLYSLSSMVTVPSSRWLSDTFTCNVAHPPSNTKVDKTVRKTDHPPGPKPCDCPKCPPPEMLGGPSIFIFPPKPKDTLLISRTPEVTCLVVDLGPDDSDVQITWFVDNTQVYTAKTSPREEQFNSTYRVVSVLPILHQDWLKGKEFKCKVNSKSLPSPIERTISKAKGQPHEPQVYVLPPAQEELSRNKVSVTCLIKSFHPPDIAVEWEITGQPEPENNYRTTPPQLDSDGTYFVYSKLSVDRSHWQRGNTYTCSVSHEALHSHHTQKSLTQSPGK
The molecule B4 gave a Kd of 70.7 nM.

B5: feline IgG1a S252I (antibody, part only; not given: Variable domains, not shown: another chain or arm of the molecule)
constant: ASTTAPSVFPLAPSCGTTSGATVALACLVLGYFPEPVTVSWNSGALTSGVHTFPAVLQASGLYSLSSMVTVPSSRWLSDTFTCNVAHPPSNTKVDKTVRKTDHPPGPKPCDCPKCPPPEMLGGPSIFIFPPKPKDTLIISRTPEVTCLVVDLGPDDSDVQITWFVDNTQVYTAKTSPREEQFNSTYRVVSVLPILHQDWLKGKEFKCKVNSKSLPSPIERTISKAKGQPHEPQVYVLPPAQEELSRNKVSVTCLIKSFHPPDIAVEWEITGQPEPENNYRTTPPQLDSDGTYFVYSKLSVDRSHWQRGNTYTCSVSHEALHSHHTQKSLTQSPGK
As for B5, the Kd turned out to be 156 nM.

B6: feline IgG1a S434H (antibody, part only; not given: variable domains and light chain, not shown: another chain or arm of the molecule; small tags and cut ends)
constant: ASTTAPSVFPLAPSCGTTSGATVALACLVLGYFPEPVTVSWNSGALTSGVHTFPAVLQASGLYSLSSMVTVPSSRWLSDTFTCNVAHPPSNTKVDKTVRKTDHPPGPKPCDCPKCPPPEMLGGPSIFIFPPKPKDTLSISRTPEVTCLVVDLGPDDSDVQITWFVDNTQVYTAKTSPREEQFNSTYRVVSVLPILHQDWLKGKEFKCKVNSKSLPSPIERTISKAKGQPHEPQVYVLPPAQEELSRNKVSVTCLIKSFHPPDIAVEWEITGQPEPENNYRTTPPQLDSDGTYFVYSKLSVDRSHWQRGNTYTCSVSHEALHHHHTQKSLTQSPGK
Consider B6, for which the Kd was determined as 1.02 nM.

B7: feline IgG1a S252G (antibody, part only; not given: Variable domains, not shown: another chain or arm of the molecule)
constant: ASTTAPSVFPLAPSCGTTSGATVALACLVLGYFPEPVTVSWNSGALTSGVHTFPAVLQASGLYSLSSMVTVPSSRWLSDTFTCNVAHPPSNTKVDKTVRKTDHPPGPKPCDCPKCPPPEMLGGPSIFIFPPKPKDTLGISRTPEVTCLVVDLGPDDSDVQITWFVDNTQVYTAKTSPREEQFNSTYRVVSVLPILHQDWLKGKEFKCKVNSKSLPSPIERTISKAKGQPHEPQVYVLPPAQEELSRNKVSVTCLIKSFHPPDIAVEWEITGQPEPENNYRTTPPQLDSDGTYFVYSKLSVDRSHWQRGNTYTCSVSHEALHSHHTQKSLTQSPGK
As to B7, the Kd is 49.8 nM.

B8: feline IgG1a S252Q (antibody, part only; not given: Variable domains, not shown: another chain or arm of the molecule)
constant: ASTTAPSVFPLAPSCGTTSGATVALACLVLGYFPEPVTVSWNSGALTSGVHTFPAVLQASGLYSLSSMVTVPSSRWLSDTFTCNVAHPPSNTKVDKTVRKTDHPPGPKPCDCPKCPPPEMLGGPSIFIFPPKPKDTLQISRTPEVTCLVVDLGPDDSDVQITWFVDNTQVYTAKTSPREEQFNSTYRVVSVLPILHQDWLKGKEFKCKVNSKSLPSPIERTISKAKGQPHEPQVYVLPPAQEELSRNKVSVTCLIKSFHPPDIAVEWEITGQPEPENNYRTTPPQLDSDGTYFVYSKLSVDRSHWQRGNTYTCSVSHEALHSHHTQKSLTQSPGK
In turn, B8 had a Kd of 192 nM.

B9: feline IgG1a S252P (antibody, part only; not given: Variable domains, not shown: another chain or arm of the molecule)
constant: ASTTAPSVFPLAPSCGTTSGATVALACLVLGYFPEPVTVSWNSGALTSGVHTFPAVLQASGLYSLSSMVTVPSSRWLSDTFTCNVAHPPSNTKVDKTVRKTDHPPGPKPCDCPKCPPPEMLGGPSIFIFPPKPKDTLPISRTPEVTCLVVDLGPDDSDVQITWFVDNTQVYTAKTSPREEQFNSTYRVVSVLPILHQDWLKGKEFKCKVNSKSLPSPIERTISKAKGQPHEPQVYVLPPAQEELSRNKVSVTCLIKSFHPPDIAVEWEITGQPEPENNYRTTPPQLDSDGTYFVYSKLSVDRSHWQRGNTYTCSVSHEALHSHHTQKSLTQSPGK
Molecule B9 had a Kd of 7030 nM.

B10: feline IgG1a S252T (antibody, part only; not given: Variable domains, not shown: another chain or arm of the molecule)
constant: ASTTAPSVFPLAPSCGTTSGATVALACLVLGYFPEPVTVSWNSGALTSGVHTFPAVLQASGLYSLSSMVTVPSSRWLSDTFTCNVAHPPSNTKVDKTVRKTDHPPGPKPCDCPKCPPPEMLGGPSIFIFPPKPKDTLTISRTPEVTCLVVDLGPDDSDVQITWFVDNTQVYTAKTSPREEQFNSTYRVVSVLPILHQDWLKGKEFKCKVNSKSLPSPIERTISKAKGQPHEPQVYVLPPAQEELSRNKVSVTCLIKSFHPPDIAVEWEITGQPEPENNYRTTPPQLDSDGTYFVYSKLSVDRSHWQRGNTYTCSVSHEALHSHHTQKSLTQSPGK
Molecule B10 yielded a Kd of 1190 nM.

B11: feline IgG1a S252V (antibody, part only; not given: Variable domains, not shown: another chain or arm of the molecule)
constant: ASTTAPSVFPLAPSCGTTSGATVALACLVLGYFPEPVTVSWNSGALTSGVHTFPAVLQASGLYSLSSMVTVPSSRWLSDTFTCNVAHPPSNTKVDKTVRKTDHPPGPKPCDCPKCPPPEMLGGPSIFIFPPKPKDTLVISRTPEVTCLVVDLGPDDSDVQITWFVDNTQVYTAKTSPREEQFNSTYRVVSVLPILHQDWLKGKEFKCKVNSKSLPSPIERTISKAKGQPHEPQVYVLPPAQEELSRNKVSVTCLIKSFHPPDIAVEWEITGQPEPENNYRTTPPQLDSDGTYFVYSKLSVDRSHWQRGNTYTCSVSHEALHSHHTQKSLTQSPGK
Molecule B11 showed a Kd of 4470 nM.
